Here are results for 13 sequences from the DeepSol protein solubility set.

A short description of the series: soluble on expression in E. coli; label from the status in PepcDB or PDB records.
For “MGSDKIHHHHHHMRESPLILPFDPAGIALDRSRGLSQQLYQALRARVLDGRLSSGTRLPATRDLAAMLALSRNSVVRAYDQLYAEGFIESRVGDGTYVSRLPKLSTQVSTGLSLGLSTGLSTFRQENTEDLSSGRHISAPLQRLKNNHLPPPRSGLPRAFRVGIPAFDLFPFDVWAKLQAGFWRNPSPAQLGYGDPAGEPALRDLIAAYLRRSRGLSCTAEQIVITSGAQQAISLCAQLLLQPGDGVAVENPGYRAAAHAFTLAGGRVCGVPVDEDGLDCGRLEQLTDCRLTYVTPAHQYPTGVTMSLARRLALLAWAERSDGWIIEDDYDGEYRYSGAPLAPLAALDRHGRVLYVGTFGKIAFPALRLGYLVLPSKLVQAFSQGRAIAVRHSEVSSQCVMAEFMARGHFQRHIRRMRKAALKRRDVLKAGWPVDIPGLGAMPEVAAGLHVKVNVDNFAREQELVAKAEAVEVEVTPLSNFWLADCEVPVDKRAGLVLGFAAVPEGEIAEALMKLRKVWRK”, the “soluble on expression in E. coli” value is “not soluble”.

“MGSDKIHHHHHHMRTRYVDIDDRMEDLADRLRGDPEIVQDFLARYELSWLYHENALEGVVYSSQELATALANAPLADVTFVSALQEIRNHKVALDLVREEAAAKKPKLNLTTVKKLYETLGHGIEGRSVAEYRKDMPLHRAYFHDIAQPPKIQPALQKLLEATEGADFRNAHPIQQACKLHHGFMQVFPFTENSGRVARLLANLVLLHAGYKLPVIVHATDRQRYYESLRLPDTILRDLTMEALDNALTQAEKYFAEAPRARKAAR”: the “soluble on expression in E. coli” value is listed as “not soluble”. The entry for “MSLAGGYVIDTTENTFQAMVQTSATFPILLFLWVPTDDRLFAMARALGDAVNKLNGQIQLSRIDIASNPSIAQAFQIQGAPALFALIGGRPMPILQGLPSDEELQQITDVVVPKLIAAAQQAGVTGTAPYSGDPDSDAANSASAGSVQDQVPPEHQEAYMLAQQGDYAGAAAAYEKVLEADPNDTRAARERAKALLLARSANADVRVVRAAAADKPDDVDAQLAVADIDMIGGQIQDAFDRLLDFVAAGHKADIEPVRQRLLEYFTIPEPTDERLKRARRRLATLMYEGHHHHHH” is “soluble”; for “MGSDKIHHHHHHMKFKERLQYLRLEKELSEIQLSKKVGISESVIRLYERGKLRIDLEHLHKLAAFFDVTPGLLLGTAFPHLPPEEALESYRVVNKLLEIRNEERKDEEDSPLFIDTLAQLAAESNKSDNKASNRQATIRAGVVAVYHKIVSAHSEANQEFIEDYWPVNTTVMQIYGHDISNYFYLRVHGDFMEPTIKNQSIVLAKRQVQVDNNDLAVVLYEQSPAAVKRLNRYEDKIILLCDNKAHPAQICEQEKCIILGKVLWKPK” it is “not soluble”.

As for “MGSDKIHHHHHHMTDSPHTIRNPAAPLAERLRPRTLDDVVGQSHLLGPGKPLRLAFESGKPHSMILWGPPGSGKTTLARLMAHAFDAEFIAISAVLSGVKDIREAIERAQITLQRTGRATLLFVDEVHRFNKAQQDAFLPHVEQGLITFIGATTENPSFEVNGALLSRAQVYALKALTDQELHQLFERARSIAMLDLEFENTAIELLIGFADGDARRLLNLLEQVQNAAETEEIIKIDADYLSRVLARNVRRFDKGGDAFYDQISALHKSIRGSSPDAALYWLCRMLDGGADPRYIGRRLVRTATEDIGLADPRALTLALNACEVFERLGSPEGELALAQATLYLACAPKSNAAYVAYKQARAFIKEDISRPVPIHLRNAPTRLMREMGHGAAYRYAHDESESYAAGENYFPDNILAVQFYRPTTHGLEAKIGEKLAYLRSLDEKTGKKRN”, the “soluble on expression in E. coli” value is on record as “not soluble”.

For “MSLKPFGLFAICVAFAGCGDTSWWSKNDDPELKSEQIRKLIPSRVHDRQSWANDINDIMEKLKIPKTKDNVCSVVAIVDQESNFVANPVVAGLGEKAVKEVSTRLNEKFEEKLGTTIGGQVAGYFEDVLKNQPTPDDNYMSQMRRVRTEKDLDVLYRQIFDYMASHYHVSALTGAAKLVGQDIAEKMNPITTLGSMQVNIVYAKENKRVKLQSVNNLRDDLYTQYGGLYYGIHRLMLYQTSYDKPIYRFADYNSGMYSSRNAALQSMLNKLGDEQLTEDGDLLLYNKDGSIQSTRSSSEKALIKIFTLNNVLLTPNQIRTDLKQEKSQSFEQTPTYIAITKLYQKQTGKEAPYAMMPQVIISGPKLSRDYNTNWYASRVNGRYQTCMQRAKRIKEGHHHHHH”, the “soluble on expression in E. coli” value is recorded as “soluble”. For “MSLDWQTLLTRERLGKPVHSNDELGRSAFHKDHDRIIFSGAFRRLGRKTQVHPVSSNDHIHTRLTHSLEVACVGRSLGMRVGEILREELPEWCDPSDLGVIVQSACLAHDIGNPPFGHSGEDAIRNWFQQAAGRGWLDEMSDAERSDFLHFEGNAQGFRVLTQLEYHQFDGGTRLTYATLGTYLKYPWTSRHAEALGYKKHKFGCYQSELPLLEQITHKLGMPQLDDERWARHPLVYLMEAADDICYGLIDLEDGLEMELLEYSEVEALLLGLVGDDLPDTYRQLGPRDSRRRKLAILRGKAIEHLTNAAARAFVDQQQALLAGQLAGDLVEHMHGPAKLCVQRAKAIAREKIFQDKRKTLHEIGAYTTLEILLNAFCGAALEQYGGHTPSFKNRRILDLLGRNAPDPQWPLYRAFLQVIDFIAGMTDSYATEMAREMTGRSSEGHHHHHH”, the “soluble on expression in E. coli” value is “soluble”. In the case of “DVQLQESGGGLVQAGGSLRLSCAASGATGSTYDMGWFRQAPGKERESVAAINWGSAGTYYASSVRGRFTISRDNAKKTVYLQMNSLKPEDTAVYTCGAGRIGRSVFNLRRESWVTWWGQGTQVTVSS”, the “soluble on expression in E. coli” value is “soluble”. Turning to “MSLDDRSIRAEERSDKLMNLKIKNITCSIKKVPLKRPFITALHKVTEIEGLKIVVELSDGQTGTGTATPNEKVTGDTLQSSLDIVNQVIKPALINQDFKNWNKLLTTLQTCIVHNTAAKAAMDIALYQLKAKENNESLVNLLGSEKGKLTTDYTISIGSDDHMVSEAKSLVKDGFTAIKIKLGNNSVSHDIKTIQKISKAVGPDISLRIDCNQAWNYKDTLKASRIWAQDNLNIDFIEQPVLKDAISDLTLLSENSPYPIMADESVASYQDAINLIKHHACDYINIKLMKTGGLSEAIKINDLAQACGIKTMVGCMIEPVESIAAAAAFAVANKNVKFIDLDSIFMATQDPDLGKYLKIKNNEIILKDEGHHHHHH”, the “soluble on expression in E. coli” value was “soluble”. The entry for “MATAADSVYSIESPKAAKSLMLDVVHAGKRLVAVGDRGHILYSDDQGQTWVQAKVPTRQLLTAVYFVDDKRGWAVGHDAQVLASSDGGATWTRQFQDLKREAPLLDVWFKDTQTGYAVGAYGALLETSDGGQHWEDVSDRLDNEDQFHLNAIAQVKDSGLFIVGEQGSMFRSADDGQTWERLEGPYEGSLFGVIGTGQPATLLVYGLRGNLYRSTDFGSTWEQVELNAARGALEFGLSGATLLDDGSLVIVGNGGSVIRSTDHGQTFSVFNRADRISLSAVTAAGNGDLILAGQGGVRVSAATGAELGQLEHHHHHH” is “not soluble”.

On to “MKCVVCGRNEAVEHGMCSSCIYDNTNVENIGPVSLVFCPKCGSIRIGKKWYRDSYGNKLLPMLLDEVKCSDVNARISGDEKGIFFDEKNKQIILPVTIKRSNMKDKIQNVAIPYSVTYISCPTCNKITGSYFEATIQLRTVSTKYDNILESVLESIEAIVEKRKKEDAESFISKVEKKPEGIDIYLGKRTDGDVVSSFVLDHFFSSIIVTKTLAGVKDGKKFFRFTYSLRILDAKEGSLEHHHHHH”, for which the “soluble on expression in E. coli” value is given as “not soluble”.

As for “MAHHHHHHMWCTRLCREEGLFRFLRNLFEVLDFVTERCRRCLDTSSCLLLLCASPLSSCSIGGPHTRGCFNEILHRLSRGAQQPAHRRQSATSSHPRTPWRLHRFNDERVCVWGGNPPPQSTTGRHRSLCTPFSLSHTPSTAWAPLLPADKHHMQASPVLAGAAVRRTATASVGSEPRTNLPFLINVVKKAQKSANTVVASTPALSSMSSTKEPPIQAAAFKPYPLLSPGEVKQAAGSSLLYKDDVCVLVNDAFPKSMVHCLVMPLDLRLQSLNALTKKDAPLLRHMLHVGDEYVRYLKTAVPHTYTARRFIAGFHALPSLPMLHMHVLSTDLDSPCLKNKKHYNSFATFFFLTGDRVLDDLERHGRVTLNQDVTRLRQMEEQDMKCLWCGTALPSVPAMKSHIQCCPQNKAVEKSS”, the “soluble on expression in E. coli” value is listed as “not soluble”.

“MSLTIGIWILGDQLWSGQTALKSHQGDRSQVPVLLIESAEFARQRPYHRQKLVLVWSAMRHFAEDLRAEGWSVTYEIAADFLTPLHHWLKTQGVSHLQVMAPGDRPFEAWLKSLTLPCELTLLPNNHFLWSREDFSAWAGDRKRLLLEDFYRAGRKRWQILMVDDQPVGGRWNFDQDNRKPAKKNLSPPKPLSFPPDDITQQVIERIEQLNLPGYGQLSGFQWGEGHHHHHH”: the “soluble on expression in E. coli” value is given as “soluble”.
